From patent US20230228751 (APTAMER DIAGNOSTICS LIMITED, published 2023)
Residue numbers refer to the chain shown, from its start.

B1: S1_C3-A (ssDNA)
DNA: CCAGTGTAGACTACTCAATGCTGTGTTGACTTGATCCTGTGGCATATGGGTGGGAGGGCGGGTACTATCCACAGGTCAACC
B2: S1_B9 (ssDNA)
DNA: B1 DNA with C43T
B3: S1_B4 (ssDNA)
DNA: B1 DNA with C43T, C59A
B4: S1_C2 (ssDNA)
DNA: CCAGTGTAGACTACTCAATGCGGCTGTGTGACTTGACCTCTGGATATGGGTGGGAGGGATGGGTACTATCCACAGGTCAACC
B5: S1_D6 (ssDNA)
DNA: CCAGTGTAGACTACTCAATGCTACTGACTCATCTGCCGAATCCAAACCCGACCAGTCCACGGTACTATCCACAGGTCAACC
B6: S1_C4 (ssDNA)
DNA: B5 DNA with C28T
B7: S1_C11 (ssDNA)
DNA: CCAGTGTAGACTACTCAATGCCGTGGACTGGTCGGGTTTGGATTCGGCAGATGAATCCAGTAGTACTATCCACAGGTCAACC
B8: S1_E5 (ssDNA)
DNA: CCAGTGTAGACTACTCAATGCCACCTCCTTTTCCGTTTCTTGTATCATGCTACTATCCTGTGTACTATCCACAGGTCAACC
B9: S1_B12-B (ssDNA)
DNA: CCAGTGTAGACTACTCAATGCTGTGTTGACTTGATCCTGTGGTATATGGGTGGGAGGGATGGGTACTATCCACAGGTCAACC
B10: S1_C8 (ssDNA)
DNA: CCAGTGTAGACTACTCAATGCCGATGGGTCGGGGGGGTGGGTAGGCATTGATCATTCCTTTCGTACTATCCACAGGTCAACC
B11: S1_C3-B (ssDNA)
DNA: B10 DNA with A54G, T55C, T61C
B12: S1_B3 (ssDNA)
DNA: B10 DNA with C53T, A54C, T55C
B13: S1_A1-A (ssDNA)
DNA: B10 DNA with G34T, A54G, T55C, T61C
B14: S1_B1 (ssDNA)
DNA: CCAGTGTAGACTACTCAATGCCGATGGGTCGGGTGGGTGGGTAGGCATTGATCGCTCCTCAGTACTATCCACAGGTCAACC
B15: S1_A12 (ssDNA)
DNA: CCAGTGTAGACTACTCAATGCCGTGTGGTGACCTTGATCCTGTGGTATATGGGTGGGAGGGGCGGGTACTATCCACAGGTCAACC
B16: S1_A9 (ssDNA)
DNA: CCAGTGTAGACTTACACCTGCAGTGTTCACGAGGGCCGGCGGTATATGGGCGGTTGATACGAGTACTATCCACAGGTCAACC
B17: S1_A4 (ssDNA)
DNA: CCAGTGTAGACTACTCAATGCGTGGGAAGGGTGGGCGGGAGCATTGATAACTCGGAGGAGCGTACTATCCACAGGTCAACC
B18: S1_C12 (ssDNA)
DNA: B17 DNA with C36T
B19: S1_C1-B (ssDNA)
DNA: CCAGTGTAGACTACTCAATGCCGCTTCTCGACCGCCCCTTGTTTTGGTTCTTTTGTCCGTAGTACTATCCACAGGTCAACC
B20: S1_E6 (ssDNA)
DNA: CCAGTGTAGACTACTCAATGCCCAGTGGCGAGCGACTTTTTATGTAAGAACATCGATTTTCCATGGTACTATCCACAGGTCAACC
B21: S1_B11-A (ssDNA)
DNA: CCAGTGTAGACTACTCAATGCGTGTGGTGACCTTGACCTTGGATTATGGGTTTGGGCGGGAGGGTACTATCCACAGGTCAACC
B22: S1_A1-B (ssDNA)
DNA: CCAGTGTAGACTACTCAATGCGGCTGTGTGACTTGACCTCTGGATATGGGAGGGAGGGCGGGTACTATCCACAGGTCAACC
B23: S1_D1 (ssDNA)
DNA: CCAGTGTAGACTACTCAATGCATTCCTTTTGCTACCTATATTCCGTCTCCAGCATAATCCCGTACTATCCACAGGTCAACC

Assays:
Assay in all cases: BLI
[1] = target: SARS-CoV-2 spike RBD (SARS-CoV-2, UniProt P0DTC2 SEQ:1-223); conditions: tags: His tag, SinoBiological 40592-V08H
[2] = target: SARS-CoV-2 spike S1 subunit (SARS-CoV-2, UniProt P0DTC2 SEQ:1-670); conditions: tags: His tag, SinoBiological 40591-V08B1; label: 5'-biotin
[3] = target: SARS-CoV spike S1 subunit (SARS-CoV, UniProt P59594 SEQ:14-667); conditions: tags: SinoBiological

| Binder | binding result ([1]; label: 5'-biotin) | binding result [2] | binding result ([3]; label: 5' biotin) | binding result ([1]; label: 5' biotin) | binding result ([3]; label: 5'-biotin) |
| --- | --- | --- | --- | --- | --- |
| B1 | binds | no binding | no binding |  |  |
| B2 |  | binds | no binding | binds |  |
| B3 |  | binds | no binding | binds |  |
| B4 |  | binds | no binding | binds |  |
| B5 | binds | no binding | no binding |  |  |
| B6 |  | binds | no binding | binds |  |
| B7 |  | binds | no binding | binds |  |
| B8 | binds | no binding | no binding |  |  |
| B9 | binds | no binding | no binding |  |  |
| B10 |  | binds |  | binds | no binding |
| B11 |  | binds | no binding | binds |  |
| B12 |  | binds | no binding | binds |  |
| B13 |  | binds | no binding | binds |  |
| B14 |  | binds | no binding | binds |  |
| B15 |  | binds | no binding | binds |  |
| B16 |  | binds | no binding | binds |  |
| B17 |  | binds | no binding | binds |  |
| B18 |  | binds | no binding | binds |  |
| B19 |  | binds | no binding | binds |  |
| B20 | binds | no binding | no binding |  |  |
| B21 |  | binds | no binding | binds |  |
| B22 |  | binds | no binding | binds |  |
| B23 |  | binds | no binding | binds |  |
